Test results reported in paper PMC2756588.

T1: Bzz1-2, P38822
T1 sequence (P38822 568-633, looked up): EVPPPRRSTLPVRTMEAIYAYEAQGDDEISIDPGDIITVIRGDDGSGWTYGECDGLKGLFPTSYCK

T2: Myo5, Q04439
T2 sequence (Q04439 1072-1160, looked up): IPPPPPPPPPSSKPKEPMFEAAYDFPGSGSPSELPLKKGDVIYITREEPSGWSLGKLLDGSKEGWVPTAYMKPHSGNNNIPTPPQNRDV

T3: Lsb3, P43603
T3 sequence (P43603 385-451, looked up): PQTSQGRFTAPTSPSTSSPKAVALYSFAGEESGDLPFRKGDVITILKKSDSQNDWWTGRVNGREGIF

T4: Boi1, P38041
T4 sequence (P38041 1-86, looked up): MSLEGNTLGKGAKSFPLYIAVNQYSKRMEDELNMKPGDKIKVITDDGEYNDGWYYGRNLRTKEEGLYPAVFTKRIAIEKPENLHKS

T5: Hof1, Q05080
T5 sequence (Q05080 590-669, looked up): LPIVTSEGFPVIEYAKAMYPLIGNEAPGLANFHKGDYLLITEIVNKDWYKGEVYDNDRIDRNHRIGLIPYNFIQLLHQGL

T6: Fus1, P11710
T6 sequence (P11710 432-512, looked up): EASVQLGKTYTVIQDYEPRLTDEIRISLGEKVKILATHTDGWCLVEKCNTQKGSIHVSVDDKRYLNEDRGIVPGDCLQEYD

T7: Cyk3, Q07533
T7 sequence (Q07533 1-83, looked up): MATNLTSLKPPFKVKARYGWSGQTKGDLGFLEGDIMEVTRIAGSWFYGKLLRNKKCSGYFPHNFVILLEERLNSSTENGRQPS

T8: Lsb1, P53281
T8 sequence (P53281 45-122, looked up): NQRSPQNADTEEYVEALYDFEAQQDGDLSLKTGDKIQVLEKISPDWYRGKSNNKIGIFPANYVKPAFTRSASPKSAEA

T9: Bbc1, P47068
T9 sequence (P47068 1-78, looked up): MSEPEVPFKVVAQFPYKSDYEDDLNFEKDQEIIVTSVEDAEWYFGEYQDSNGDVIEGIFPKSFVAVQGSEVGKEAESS

T10: Sla1-3, P32790
T10 sequence (P32790 344-424, looked up): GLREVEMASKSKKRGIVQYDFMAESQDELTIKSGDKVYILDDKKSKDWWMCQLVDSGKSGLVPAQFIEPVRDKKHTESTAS

T11: Boi2, P39969
T11 sequence (P39969 32-116, looked up): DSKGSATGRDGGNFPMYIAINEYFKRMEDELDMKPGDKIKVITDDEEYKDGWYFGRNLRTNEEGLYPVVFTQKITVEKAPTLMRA

T12: Nbp2, Q12163
T12 sequence (Q12163 103-180, looked up): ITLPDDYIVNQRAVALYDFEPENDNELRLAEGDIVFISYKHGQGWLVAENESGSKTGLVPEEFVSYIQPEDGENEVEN

T13: Cdc25, P04821
T13 sequence (P04821 50-136, looked up): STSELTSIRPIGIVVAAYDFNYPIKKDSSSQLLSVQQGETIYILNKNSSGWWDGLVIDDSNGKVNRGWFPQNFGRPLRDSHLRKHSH

T14: Hse1, P38753
T14 sequence (P38753 208-285, looked up): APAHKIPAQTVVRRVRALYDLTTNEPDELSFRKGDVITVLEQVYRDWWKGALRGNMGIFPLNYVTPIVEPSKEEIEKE

T15: Pex13, P80667
T15 sequence (P80667 295-386, looked up): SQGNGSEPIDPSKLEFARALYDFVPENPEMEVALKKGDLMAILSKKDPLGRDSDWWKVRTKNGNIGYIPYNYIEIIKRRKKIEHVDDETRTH

T16: Abp1, P15891
T16 sequence (P15891 535-592, looked up): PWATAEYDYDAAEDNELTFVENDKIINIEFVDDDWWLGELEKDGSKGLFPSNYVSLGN

T17: Sla1-2, P32790
T17 sequence (P32790 60-140, looked up): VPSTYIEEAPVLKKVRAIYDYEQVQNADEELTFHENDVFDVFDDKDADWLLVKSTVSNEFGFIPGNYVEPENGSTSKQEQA

T18: Lsb4, P32793
T18 sequence (P32793 402-468, looked up): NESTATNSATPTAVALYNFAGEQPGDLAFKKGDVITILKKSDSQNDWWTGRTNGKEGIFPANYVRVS

T19: Bzz1-1, P38822
T19 sequence (P38822 478-572, looked up): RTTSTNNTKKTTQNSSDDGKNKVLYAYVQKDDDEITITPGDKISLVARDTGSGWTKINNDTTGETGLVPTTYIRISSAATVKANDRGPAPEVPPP

T20: Pin3, Q06449
T20 sequence (Q06449 53-122, looked up): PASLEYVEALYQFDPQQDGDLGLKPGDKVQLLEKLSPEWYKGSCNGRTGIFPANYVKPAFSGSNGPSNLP

T21: Bud14, P27637
T21 sequence (P27637 247-328, looked up): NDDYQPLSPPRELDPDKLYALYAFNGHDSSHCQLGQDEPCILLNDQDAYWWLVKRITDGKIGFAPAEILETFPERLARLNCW


Tests used:
Assay in all cases: SPOT array
Bzz1-2, P38822 = biological target: T1, Bzz1-2, P38822; details: median of control spots 4538
Myo5, Q04439 = biological target: T2, Myo5, Q04439; details: median of control spots 471
Lsb3, P43603 = biological target: T3, Lsb3, P43603; details: median of control spots 406
Boi1, P38041 = biological target: T4, Boi1, P38041; details: median of control spots 1162
Hof1, Q05080 = biological target: T5, Hof1, Q05080; details: median of control spots 4086
Fus1, P11710 = biological target: T6, Fus1, P11710; details: median of control spots 1200
GST = details: median of control spots 978
Cyk3, Q07533 = biological target: T7, Cyk3, Q07533; details: median of control spots 1451
Lsb1, P53281 = biological target: T8, Lsb1, P53281; details: median of control spots 388
Bem1-2, P29366 = details: median of control spots 4347
Bem1-2, P29366, sequence (P29366 139-227): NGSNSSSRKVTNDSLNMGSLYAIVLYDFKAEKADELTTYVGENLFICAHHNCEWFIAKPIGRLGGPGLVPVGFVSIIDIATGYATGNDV

Bbc1, P47068 = biological target: T9, Bbc1, P47068; details: median of control spots 796
Sho1, P40073 = details: median of control spots 1148
Sho1, P40073, sequence (P40073 287-367): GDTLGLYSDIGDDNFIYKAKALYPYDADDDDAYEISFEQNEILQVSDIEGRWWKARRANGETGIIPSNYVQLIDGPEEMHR

Sla1-3, P32790 = biological target: T10, Sla1-3, P32790; details: median of control spots 5475
Boi2, P39969 = biological target: T11, Boi2, P39969; details: median of control spots 1161
Rvs167, P39743 = details: median of control spots 2707
Rvs167, P39743, sequence (P39743 419-482): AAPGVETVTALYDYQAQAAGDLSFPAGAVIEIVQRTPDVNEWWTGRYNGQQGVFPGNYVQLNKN

Nbp2, Q12163 = biological target: T12, Nbp2, Q12163; details: median of control spots 357
Cdc25, P04821 = biological target: T13, Cdc25, P04821; details: median of control spots 969
Hse1, P38753 = biological target: T14, Hse1, P38753; details: median of control spots 1727
Pex13, P80667 = biological target: T15, Pex13, P80667; details: median of control spots 1341
Abp1, P15891 = biological target: T16, Abp1, P15891; details: median of control spots 935
Sla1-2, P32790 = biological target: T17, Sla1-2, P32790; details: median of control spots 712
Lsb4, P32793 = biological target: T18, Lsb4, P32793; details: median of control spots 397
Bzz1-1, P38822 = biological target: T19, Bzz1-1, P38822; details: median of control spots 4446
Pin3, Q06449 = biological target: T20, Pin3, Q06449; details: median of control spots 2171
Bud14, P27637 = biological target: T21, Bud14, P27637; details: median of control spots 956
Bem1-1, P29366 = details: median of control spots 4282
Bem1-1, P29366, sequence (P29366 55-141): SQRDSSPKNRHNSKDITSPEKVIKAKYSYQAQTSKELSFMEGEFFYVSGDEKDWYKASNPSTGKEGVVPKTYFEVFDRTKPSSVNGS

Myo3, P36006 = details: median of control spots 468

SPOT intensity (Bzz1-2, P38822) | SPOT intensity (Myo5, Q04439) | SPOT intensity (Lsb3, P43603) | SPOT intensity (Boi1, P38041) | SPOT intensity (Hof1, Q05080) | SPOT intensity (Fus1, P11710) | SPOT intensity (GST) | SPOT intensity (Cyk3, Q07533) | SPOT intensity (Lsb1, P53281) | SPOT intensity (Bem1-2, P29366) | SPOT intensity (Bbc1, P47068) | SPOT intensity (Sho1, P40073) | SPOT intensity (Sla1-3, P32790) | SPOT intensity (Boi2, P39969) | SPOT intensity (Rvs167, P39743) | SPOT intensity (Nbp2, Q12163) | SPOT intensity (Cdc25, P04821) | SPOT intensity (Hse1, P38753) | SPOT intensity (Pex13, P80667) | SPOT intensity (Abp1, P15891) | Binder | also measured
8 | 206 | 892 | 0 | 425 | 0 | 0 | 0 | 1110 | 11 | 33 | 58 | 1 | 0 | 4620 | 0 | 0 | 750 | 470 | 48 | TTNRGPPPLPPRANV | SPOT intensity (Sla1-2, P32790): 0; SPOT intensity (Lsb4, P32793): 743; SPOT intensity (Bzz1-1, P38822): 0; SPOT intensity (Pin3, Q06449): 48; SPOT intensity (Bud14, P27637): 1; SPOT intensity (Bem1-1, P29366): 0; SPOT intensity (Myo3, P36006): 129
19 | 37 | 588 | 0 | 5 | 0 | 1 | 0 | 63 | 7 | 199 | 65 | 3 | 0 | 2140 | 1 | 0 | 72 | 671 | 129 | ISNFVPPNLPMRRFK | SPOT intensity (Sla1-2, P32790): 39; SPOT intensity (Lsb4, P32793): 452; SPOT intensity (Bzz1-1, P38822): 1; SPOT intensity (Pin3, Q06449): 217; SPOT intensity (Bud14, P27637): 8; SPOT intensity (Bem1-1, P29366): 1; SPOT intensity (Myo3, P36006): 59
0 | 0 | 556 | 2 | 0 | 0 | 1 | 0 | 58 | 3 | 5 | 0 | 1 | 1 | 1260 | 0 | 0 | 2 | 97 | 0 | DDEDVPPQLPTRTKS | SPOT intensity (Sla1-2, P32790): 0; SPOT intensity (Lsb4, P32793): 897; SPOT intensity (Bzz1-1, P38822): 0; SPOT intensity (Pin3, Q06449): 2; SPOT intensity (Bud14, P27637): 1; SPOT intensity (Bem1-1, P29366): 0; SPOT intensity (Myo3, P36006): 0

The remaining lines, values behind:

Binder | SPOT intensity (Bzz1-2, P38822) | SPOT intensity (Myo5, Q04439) | SPOT intensity (Lsb3, P43603) | SPOT intensity (Boi1, P38041) | SPOT intensity (Hof1, Q05080) | SPOT intensity (Fus1, P11710) | SPOT intensity (GST) | SPOT intensity (Cyk3, Q07533) | SPOT intensity (Lsb1, P53281) | SPOT intensity (Bem1-2, P29366) | SPOT intensity (Bbc1, P47068) | SPOT intensity (Sho1, P40073) | SPOT intensity (Sla1-3, P32790) | SPOT intensity (Boi2, P39969) | SPOT intensity (Rvs167, P39743) | SPOT intensity (Nbp2, Q12163) | SPOT intensity (Cdc25, P04821) | SPOT intensity (Hse1, P38753) | SPOT intensity (Pex13, P80667) | SPOT intensity (Abp1, P15891) | also measured
TTAPALPSLPPPPLL | 2 | 651 | 0 | 0 | 6110 | 0 | 0 | 0 | 0 | 0 | 0 | 0 | 0 | 0 | 0 | 0 | 0 | 0 | 4 | 0 | SPOT intensity (Sla1-2, P32790): 0; SPOT intensity (Lsb4, P32793): 0; SPOT intensity (Bzz1-1, P38822): 0; SPOT intensity (Pin3, Q06449): 0; SPOT intensity (Bud14, P27637): 0; SPOT intensity (Bem1-1, P29366): 0; SPOT intensity (Myo3, P36006): 728
EEEEEHPPLPARRKS | 3 | 0 | 683 | 0 | 0 | 0 | 0 | 0 | 32 | 3 | 9 | 0 | 1 | 0 | 222 | 1 | 0 | 0 | 155 | 0 | SPOT intensity (Sla1-2, P32790): 0; SPOT intensity (Lsb4, P32793): 590; SPOT intensity (Bzz1-1, P38822): 4; SPOT intensity (Pin3, Q06449): 0; SPOT intensity (Bud14, P27637): 0; SPOT intensity (Bem1-1, P29366): 0; SPOT intensity (Myo3, P36006): 0
LKRITSPPLPPRADS | 6 | 4 | 566 | 1 | 520 | 0 | 0 | 0 | 892 | 0 | 33 | 65 | 0 | 0 | 4040 | 0 | 0 | 38 | 145 | 40 | SPOT intensity (Sla1-2, P32790): 0; SPOT intensity (Lsb4, P32793): 700; SPOT intensity (Bzz1-1, P38822): 0; SPOT intensity (Pin3, Q06449): 11; SPOT intensity (Bud14, P27637): 3; SPOT intensity (Bem1-1, P29366): 0; SPOT intensity (Myo3, P36006): 75
